Test results reported in PMC5071832, “Molecular basis for catalysis and substrate-mediated cellular stabilization of human tryptophan 2,3-dioxygenase” (Scientific Reports, 2016).

Molecular target: the molecule itself
Experiment: crystal structure; ferrous hTDO (45 mg/ml) with 10 mM L-Trp, under-oil microbatch, anaerobic, 18 °C; precipitant 50 mM sodium citrate pH 5.6, 5% PEG 3350, 2% Tacsimate pH 5; one crystal mounted anaerobically, one soaked overnight in O2-saturated solution; four subunits (A-D) form the tetramer

B1: human tryptophan 2,3-dioxygenase (enzyme)
chain: LPVEGSEEDKSQTGVNRASKGGLIYGNYLHLEKVLNAQELQSETKGNKIHDEHLFIITHQAYELWFKQILWELDSVREIFQNGHVRDERNMLKVVSRMHRVSVILKLLVQQFSILETMTALDFNDFREYLSPASGFQSLQFRLLENKIGVLQNMRVPYNRRHYRDNFKGEENELLLKSEQEKTLLELVEAWLERTPGLEPHGFNFWGKLEKNITRGLEEEFIRIQAKEESEEKEEQVAEFQKQKEVLLSLFDEKRHEHLLSKGERRLSYRALQGALMIYFYREEPRFQVPFQLLTSLMDIDSLMTKWRYNHVCMVHRMLGSKAGTGGSSGYHYLRSTVSDRYKVFVDLFNLSTYLIPRHWIPKMNPTIHKFL
notes: tryptophan 2,3-dioxygenase, human; Heme protein, crystallized in the ferrous state with L-Trp (and O2 or NFK); The construct lacks the N-terminal residues up to at least K17, and K37 lies in a disordered region; also called hTDO; TDO; source: recombinant, purified; oxidized with potassium ferricyanide, G25 column
stoichiometry N: 4
